# Measurements published in the DeepSol protein solubility set.
# Test: soluble on expression in E. coli; label from the status in PepcDB or PDB records
row,Sequence,soluble on expression in E. coli
1,MLYASLCRTPVFGILAQILCDIYSSIGCALSSFRSPLGPPFDFLFDTCSCQTARCFNKSKGVLITGSKLKAFRNPQPSWGFSVHKQVAALWQQLLSTGNVTRETDFFQQGGDSLLATRLTGQLHQAGYEAQLSDLFNHPRLADFAATLRKTDVPVEQPFVHSPEDRYQPFALTDVQQAYLVGRQPGFALGGVGSHFFVEFEIADLDLTRLETVWNRLIARHDMLRAVVRDGQQQVLEQTPRWVIPAHILHTPEEALQVREKLAHQVLNPEVWPVFDLQVGYVDGMPARLWLCLDNLLLDGLSMQILLAELEHGYQYPQQLPPPLPVTYRDYLQQPAIQSLNADSLAWWQAQLDDIPPAPALPLRCMPQDVETPRFARLNGALDSTRWHRLKKRAADAHLTPSAVLLSVWSTVLSAWSAQPEFTLNLTLFDRRPLHPQINQILGDFTSLMLLSWHPGESWLHSAQSLQQRLSQNLNHRDVSAIRVMRQLAQRQNVPAVPMPVVFTSALGFEQDNFLARRNLLKPVWGISQTPQVWLDHQVYESEGELRFNWDFVAALFPAGQVERQFEQYCTLLNRMTEDENSWHLPLAALVPPVKQAEQGTERTSRVCPEHSQSHIAADESTVSLICDAFREVVGESVTPAQNFFEAGATSLNLVQLHVLLQRHEFSTLTLLDLFTHPSPAALAAYLTSVATVEKTKRSRPVRRRQRRI,not soluble
2,MLYVVGIGPGNEEYFTKEAENALNSVDLIVCYTGYKKYIERFDTEIYVSGMTKEVERVEYALKEAENKNVALVSNGDATIYGLASLAYELNEKNLHNVTINVVSGL,not soluble
3,MMDEEGAALPVWSRRLQQLTERSGLSQAELARRAGMSRDTYNRYCRGLTRPPRKKVLALAELFGVETWEIDPLEAGIAALRRESERSLEALGEQPIPSTPPYTLSPPSSGDPRMMHLRVDVDVRIETALRIAELLNREGSS,not soluble
4,MMEADKKFLELVKKWGVLSVVSSWQDRLLRDICALIVECVLFDKTCAVAPAYFTLIAMNSSKFSTQQWNIFSNFLATASTQSLRHVRLLNSFFVRSSTDENGDIGDVTSYNPGKLTFRQLIAAVQVLSSQKEKSLGQKEEEDLSSGVALIMLSHGADTHRLEVHSIISSLFTHCLLLQLIASLLLSEDSNPKLKATLIGSTSPIDPKLDDSIYPILYNILNESSETSLDFDSRPAVGSLLSRMLGIKHANLLKALVSSNLTKTMSLLRRFEKTKNTELLPEIAKAVKSRSVDLKSVEFEVSTRRSAFVTREHAITQYHLVPVDNGEENAYKLVSQEFVDGALSEYDKHRDRLKPFIPDRRNPFQHAIDDSDTVSIDSKTEDFDEIRLAAYRDICLIPLRYVSDNLLREHLPDFLPPVTQIVLSSPDLAVRQLAVDFMSRLA,not soluble
5,MMEIRLTELKDLPLVMEIYDYARAFMRANGNATQWIDGYPSESFIRQEIEDGHSFVCTDEQGEILGTFCFILGEDPTYLNIYEGAWLNDEPYGVIHRMATSGKRKGVSEACLNWCFEHFENIRVDTHRDNKVMQHILAKYGFQRCGIIYVKNGTERIAYQRIL,not soluble
6,MMGNDSYSSNRGSSRDVLSFLQNFLGGFYAKYGIEVKLVGGLSLSKFYYAFDAERNQFLARHFLPVLSYIKKDFNARAALGIVNVDIYEPGFNFIFGLAHPGLKVAVVSLYRLYPEFYGNPPDRKLLKERALKEVMHELGHVFGLGHCPNPKCVMHFSNSIIDTDIKSWMYCESCLRKLEKNLARSHVLEHHHHHH,not soluble
7,MMGSSSQELQTALTDVSKTCHHLWEENKDLQGRFVNELGELQRLQMVIAQLEQQQRLENVFTVKQQMTELQKRAATLYEHLTQKRNDIVIKLNDGTNFATMLQTQLIGEKLFSWKNAQKLAQIGMPFDNREQLLDEIQIEFEFLADQNWQLNMFSCWMLDLLRRAPQLNDGLAQATIGKLTAITEQLNKLLFMLVSQSFIVSVQPEPVLKTQHKFVTEVRLLIGDKLGIRQHLVNTNVSVKIIAEDEAKQLSVDYDAHKEIRNNKTVGTISNDFEKLTMNERGHLAAKFNNSKLTRIAHRKPPPKGASDLKCAASMQAATDQKYALLFFITPFQMGNLSKEEQFDVWTLSLPIMVTVHGSQDCDAQVAILWHRAFASISRNPNTTDVTAVTWDNLAIMLRNKFSLFTGARRPLSDSDLAYLSEKMLMPNVADQKPITFHRFAKQAMRDDLPFSFWEWFFSIMQLIKQKLLKFWDEGWCIGFISKNDASQSMMMCQHSSFLLRFSDSQTGAVSIGFVCEEADGQKIPFHLAPFTIKDLDQLSLASRIASCPQLKDIRYMYPAIDKEEMLRFFESEERHRVGGGDSPTGYIQSEIVMVAKTNGNFRRMSNAPSMFGADSPSPLSVQSKLDWSPGEVHQNHMMEMSDELGQILTVSDMSGDVETLLGPAFKNNITNYNPHDGNHQHNLHFVDMSQQGMMQQHHNQFYPS,not soluble
8,MMKPNIDFKRLKAYVQANGSYSLVVKGDSIEVHFSPNFPEAIPHLPDNLPVEHIMYGKVENGIVYFYRFETISSFGTTYNDLTDDDPIMEWLKYI,not soluble
9,MMKQSFLANERIYLRAVEPEDLDLMYEMENDPSMWDISSFTVPYSRFVLKQYIEGSQSDMFADKQLRLMIMRRKDNCTLGTVDITDFVPLHSRGAVGIAVHSNYRQEGYASDALKLLCEYAFNFLFIKQLYAHIAVDNEPSLRLFNSCGFTQCGVLKEWLLTHEGYKDAVLVQCMNPKR,not soluble
10,MMKSIATLISVVLCSFSAWAQTITAAQDPWPPFVMENAQQKGLSVDIVTAAFATQGYTVEFTIMPWSRALNDVKEGKIDILPATWFTQERTAYLTYSDNYLTNQVKFIKKAGDNFEFAGLASLNGKKVGIVRGYGYGDEFMNDPSFFRPESTDLKQNLQKLQAGRIDLAVEDELVAKSIITEAGMNLADFAFTNQAISENPLHVTSGKANPRSEELVAAFNKGLAEIKANGTFDKLLADYGIK,not soluble
11,MMKTMRIAAIPGDGIGKEVLPEGIRVLQAAAERWGFALSFEQMEWASCEYYSHHGKMMPDDWHEQLSRFDAIYFGAVGWPDTVPDHISLWGSLLKFRREFDQYVNLRPVRLFPGVPCPLAGKQPGDIDFYVVRENTEGEYSSLGGRVNEGTEHEVVIQESVFTRRGVDRILRYAFELAQSRPRKTLTSATKSNGLAISMPYWDERVEAMAENYPEIRWDKQHIDILCARFVMQPERFDVVVASNLFGDILSDLGPACTGTIGIAPSANLNPERTFPSLFEPVHGSAPDIYGKNIANPIATIWAGAMMLDFLGNGDERFQQAHNGILAAIEEVIAHGPKTPDMKGNATTPQVADAICKIILR,soluble
12,MMLSSNSFSLNLSNEDYIWPLEEDQEETTDSSGPMMLSPPLPEGACFNFEDRNTVYVHSRRPEDTPKSFELYSIPEDLALDSPFPSCEQTTFFTTKPDKSFLLDIKNSSPLNIGRMQNSRS,soluble
13,MMNIQVLKVSGNGNINAIADTINKYVIEDGIVHIDAIGIKATYTTVKALIQVVESLVNKGYRFNLRPYYVKVNTAGNDIQPISKTAIRWTLIAKEK,soluble
14,MMRCPECSTEGWRVLPLTVGAHVKEGLWSKIKGDFYFCSLESCEVVYFNEQTVFRKGELKTRVGVKEREEPKPVCYCNRVTEKMLLEAAEKFGKEKAVEITGAGKGKWCVVTNPSGRCCHWHLERLGFPVGGEKKAAKRVEIKLDGLTCMGCVSAVKAALEEAGANVVEIGLDRAVVEVDEEAELQKLVEAVEGAGYSARLEKR,not soluble
15,MMRTWWLCERTFRARIYVMARERIPEMTINCARERNSTFTSVPTRTWLSSTISAEYVGRNHAHTTPVPANNKDTITTIAEYHCTE,not soluble
16,MMSASSPYPIGTPGQPWQASERQAWREQRHIQREYQQEVVPKILALNSLFDVSTYGALSYDPTRYPLYVVKSRHWNANKPTVLITGGVHGYETSGVHGALQFLATAAEPYLAHFNLLAAPCVSPWGYETINRWNPNAIDPNRSFVQDSPAEEAALLMAMVAEHGPILLHIDLHETTDTDESEFRPALAARDGKAYLEGSIPDGFYTVGDTENPQLAFQQAVIDSVRRVTHIAPADENHEIIGSPVVAEGVILYPMRELGLCGGMTDCTYSTTTEVYPDSPKVTAQLCNDAQVAAIIGALDYVLANEQSLLGE,not soluble
